Results as given in paper PMC9724675, “POPDC1 scaffolds a complex of adenylyl cyclase 9 and the potassium channel TREK‐1 in heart” (EMBO Reports, 2022).

Biological target: T1, POPDC1-Myc (Popeye domain-containing protein 1, Myc-tagged) (mouse, UniProt Q9ES83 1-358)
T1 construct: POPDC1 (Bves), mouse; construct described in Froese et al 2012 and Schindler et al 2016b; Mouse is stated for the BiFC constructs, which were made from the previously described tagged constructs; also called Myc-tagged POPDC1; BVES; source: HEK293 or COS-7, transfected, in cells or in lysate
T1 sequence (looked up): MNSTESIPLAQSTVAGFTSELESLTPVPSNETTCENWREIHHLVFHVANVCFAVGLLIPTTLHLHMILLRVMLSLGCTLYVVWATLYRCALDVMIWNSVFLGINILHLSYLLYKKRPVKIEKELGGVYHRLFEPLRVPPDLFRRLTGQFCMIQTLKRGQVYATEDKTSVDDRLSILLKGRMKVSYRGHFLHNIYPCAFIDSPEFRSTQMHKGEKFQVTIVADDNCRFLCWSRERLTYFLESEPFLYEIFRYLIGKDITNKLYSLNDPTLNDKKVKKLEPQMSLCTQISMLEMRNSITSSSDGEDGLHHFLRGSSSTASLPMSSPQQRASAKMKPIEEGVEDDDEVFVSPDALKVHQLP
Assay: co-IP; IP-AC assay: HEK293 lysates expressing AC1 or AC8 with or without Myc-tagged POPDC1, immunoprecipitation with anti-MYC, AC activity stimulated with 100 μM calcium and 300 nM calmodulin
Conditions: partners not purified

B1: nontagged AC1 (adenylyl cyclase 1) (enzyme)
chain: not shown
notes: adenylyl cyclase 1 (AC1), Ca2+/calmodulin-stimulated; the plasmid is not described; source: HEK293, transfected, in lysate
**Q.** For B1, which “fold Ca2+/calmodulin-stimulated AC activity in the POPDC1 immunoprecipitate over IgG controls” value is on record?
**A.** Its value is 1.59 ± 0.05 fold.
